Source: patent US20200325187A1 (Genentech, published 2020)
Like-named read-outs stand apart in the source and are kept apart here.

How the values were obtained:
LRP6 [1] = target: T1, LRP6 (human, UniProt O75581 20-1613); assay: cell-based or functional assay
LRP6 [2] = target: T1, LRP6; assay: cell-based or functional assay; remark: listed apart in the source
LRP6 E1E2 protein = target: T2, LRP6 E1E2 protein (human, UniProt O75581 20-630, limits assumed); assay: spot phage ELISA
T2 construct: domain: E1E2
T2 sequence (looked up): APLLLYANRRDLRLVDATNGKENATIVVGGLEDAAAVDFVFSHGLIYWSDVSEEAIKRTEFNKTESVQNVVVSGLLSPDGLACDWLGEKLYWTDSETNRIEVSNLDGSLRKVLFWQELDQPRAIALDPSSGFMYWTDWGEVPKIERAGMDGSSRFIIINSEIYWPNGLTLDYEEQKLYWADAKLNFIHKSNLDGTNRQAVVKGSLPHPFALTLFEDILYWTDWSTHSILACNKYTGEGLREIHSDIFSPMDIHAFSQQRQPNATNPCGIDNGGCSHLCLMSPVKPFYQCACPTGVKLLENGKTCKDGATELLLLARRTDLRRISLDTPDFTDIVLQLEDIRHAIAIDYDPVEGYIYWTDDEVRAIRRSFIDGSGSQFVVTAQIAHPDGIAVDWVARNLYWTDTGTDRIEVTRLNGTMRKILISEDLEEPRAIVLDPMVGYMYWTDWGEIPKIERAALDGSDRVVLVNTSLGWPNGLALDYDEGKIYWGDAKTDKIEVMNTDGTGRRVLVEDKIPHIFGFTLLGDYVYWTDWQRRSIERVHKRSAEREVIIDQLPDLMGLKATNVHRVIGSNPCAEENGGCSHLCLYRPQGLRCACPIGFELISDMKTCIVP

hVEGF-A [3] = target: T3, hVEGF-A (human, UniProt P15692-4 27-191, limits assumed)
hVEGF-A [4] = target: T3, hVEGF-A; assay: cell-based or functional assay
hVEGF-A (8-109) [5] = target: T4, hVEGF-A (8-109) (human, UniProt P15692 214-315); assay: phage competition ELISA
T4 sequence (looked up): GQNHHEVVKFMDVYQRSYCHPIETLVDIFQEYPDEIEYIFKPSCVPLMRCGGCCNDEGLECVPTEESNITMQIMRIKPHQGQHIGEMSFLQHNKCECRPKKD

hVEGF-A (8-109) [6] = target: T4, hVEGF-A (8-109); assay: phage competition ELISA (clone on phage; the concentration varied on the axis is that of hVEGF (8-109))
hVEGF-A [7] = target: T3, hVEGF-A; assay: SPR
Method: Depending on the format of the assay either a streptavidin sensor (SA) or a dextran-coated (CM5) sensor was utilized as described below.
Reaction was then quenched by addition of 10 molar excess of Glycine pH 8.0 and the sample was buffer exchanged into PBS using an Amicon 0.5 mL 3000 MWCO ultra-centrifugal filters (EMD Millipore). The biotinylation state of the protein was verified by LC-MS analysis. Biotinylated VEGF-A was then captured on the surface until a resonance unit (RU) signal of about ˜400. For immobilization of VEGF-A on CM5 sensor, the surface was first activated with a mixture of N-ethyl-N′-(3-dimethylaminopropyl)carbodiimide hydrochloride and N-hydroxysuccinimide (EDC/NHS) according to the supplier instructions. VEGF-A was then diluted into coupling buffer (0.1 M Acetate Buffer, pH 5.0) and injected until the signal reached about ˜400 RU followed by a wash with 1 M ethanolamine pH 8.0 to quench remaining activated sites.

hVEGF-A (8-109) [8] = target: T4, hVEGF-A (8-109); assay: spot phage ELISA
Method: (§1) After four rounds of binding selection, individual phage clones were picked and inoculated into 450 μl 2YT media containing 50 µg/ml Carbenecillin and M13-KO7 helper phage in 96-well blocks, which were grown at 37° C. overnight. […] The plates were washed and bound phage was detected with anti-M13-HRP followed by TMB substrate. In these assays, phage binding to BSA alone was tested in parallel to assess background binding. […] Positive clones were subjected to DNA sequence analysis.

hVEGF-A [9] = target: T3, hVEGF-A; assay: cell-based or functional assay; remark: listed apart in the source
hVEGF-A (8-109) [10] = target: T4, hVEGF-A (8-109); assay: spot phage ELISA; remark: listed apart in the source
Method: as §1

hVEGF-A [11] = target: T3, hVEGF-A; assay: phage competition ELISA, soluble CKP
hVEGF-A [12] = target: T3, hVEGF-A; assay: cell-based or functional assay; remark: listed apart in the source
hVEGF-A (8-109) [13] = target: T4, hVEGF-A (8-109); assay: spot phage ELISA; remark: listed apart in the source
Method: as §1

hVEGF-A [14] = target: T3, hVEGF-A; assay: phage competition ELISA, soluble CKP; remark: listed apart in the source
hVEGF-A [15] = target: T3, hVEGF-A; assay: KDR-VEGF competition ELISA
hVEGF-A [16] = target: T3, hVEGF-A; assay: cell-based or functional assay; remark: listed apart in the source

GCRNSIKRCKQNSDCLAGCVCSVGHGCG (designed binder) [LRP6_CKP6]
Best Fit IC50 (nM) for Wnt1 (5 ng/well), luciferase reporter, fraction F1 (LRP6 [1]): 22900 nM
Best Fit IC50 (nM) for Wnt1 (5 ng/well), luciferase reporter, fraction F2 (LRP6 [1]): 23800 nM
Best Fit IC50 (nM) for Wnt1 (5 ng/well), luciferase reporter, fraction F3 (LRP6 [1]): 4620 nM
Best Fit IC50 (nM) for Wnt3a (25 ng/well), luciferase reporter, fraction F1 (LRP6 [2]): 350000 nM
Best Fit IC50 (nM) for Wnt3a (25 ng/well), luciferase reporter, fraction F2 (LRP6 [2]): 276000 nM
ELISA (LRP6 E1E2 protein): 3.1
S/N vs BSA (LRP6 E1E2 protein): 37.4

GCNIMLPFWGCGRDFECMEQCICQYYQSCG (designed binder) [VEGF_CKP9.54.90.67]
IC50 (read off the curve) (hVEGF-A [3]): 12 to 20 nM
Cellular IC50 (hVEGF-A [4]): 1.1 nM
FOLD [..] [..] TO VARIANT 9.54.90 (hVEGF-A [4]): 1.23 fold

GCNIMLPFWGCGQSFECLAGCICQYYQSCGIA (designed binder) [9.54.1-2]
fold improvement in binding affinity compared to 9.54.1 (hVEGF-A (8-109) [5]): ~10 fold

GCNIMLPFWGCGQSFECLAGCICQYYQSCGVH (designed binder) [9.54.1-90]
IC50 (read off the curve) (hVEGF-A (8-109) [6]): ~0.08 nM
fold improvement in binding affinity compared to 9.54.1 (hVEGF-A (8-109) [5]): ~10 fold

GCNIMLPFWGCGQSFECLAGCICQYYQSCGGS (designed binder) [9.54.1-63]
fold improvement in binding affinity compared to 9.54.1 (hVEGF-A (8-109) [5]): ~10 fold

GCNIMLPFWGCGQSFECLAGCICQYYQSCGTR (designed binder) [9.54.1-36]
IC50 (read off the curve) (hVEGF-A (8-109) [6]): ~0.06 nM
fold improvement in binding affinity compared to 9.54.1 (hVEGF-A (8-109) [5]): ~10 fold

GCNIMLPFWGCGQSFECLAGCICQYYQSCGLS (designed binder) [9.54.1-42]
IC50 (read off the curve) (hVEGF-A (8-109) [6]): ~0.08 nM
fold improvement in binding affinity compared to 9.54.1 (hVEGF-A (8-109) [5]): ~10 fold

GCQLMQPFWGCKQDSDCLAGCVCHWYQSCG (designed binder, also called E9) [VEGF_CKP9]
Kd (hVEGF-A [7]): 5000 nM
ELISA (hVEGF-A (8-109) [8]): 0.4
S/N vs BSA (hVEGF-A (8-109) [8]): 7.4
Cellular IC50 (hVEGF-A [9]): 11700 nM
ELISA (hVEGF-A (8-109) [10]): 3.3
S/N vs BSA (hVEGF-A (8-109) [10]): 36
IC50 (hVEGF-A [11]): 600 nM
Cellular IC50 (hVEGF-A [12]): 11700 nM
ELISA (hVEGF-A (8-109) [13]): 0.4
S/N vs BSA (hVEGF-A (8-109) [13]): 7.4
IC50 (hVEGF-A [14]): 1360 nM
IC50 (hVEGF-A [15]): 569 nM

GCDVLQPFWGCKQDSDCLAGCVCHWYQSCG (designed binder) [VEGF_CKP9.2]
ELISA (hVEGF-A (8-109) [8]): 2.4
S/N vs BSA (hVEGF-A (8-109) [8]): 31.1
Cellular IC50 (hVEGF-A [12]): 270 nM
IC50 (hVEGF-A [14]): 168 nM

GCNIMLPFWGCGQSFECLAGCVCQYYQSCG (designed binder) [VEGF_CKP9.54.1]
Kd (hVEGF-A [7]): 2.2 nM
Cellular IC50 (hVEGF-A [9]): 1.47 nM
ELISA (hVEGF-A (8-109) [10]): 2.4
S/N vs BSA (hVEGF-A (8-109) [10]): 29.9
IC50 (read off the curve) (hVEGF-A (8-109) [6]): ~0.3 nM
IC50 (hVEGF-A [15]): 0.2 nM

GCNIMLPYWGCGRDFECLAGCVCQYYQSCG (designed binder) [VEGF_CKP9.54.90.F8Y]
Kd (hVEGF-A [7]): 0.4 nM
Cellular IC50 (hVEGF-A [16]): 1.58 nM
FOLD [..] [..] TO VARIANT 9.54.90 (hVEGF-A [16]): 0.85 fold

GCNIMLPFWGCGRDFECMSDCICQYYQSCG (designed binder) [VEGF_CKP9.54.90.12]
IC50 (read off the curve) (hVEGF-A [3]): 30 nM
Cellular IC50 (hVEGF-A [4]): 1.2 nM
FOLD [..] [..] TO VARIANT 9.54.90 (hVEGF-A [4]): 1.12 fold

GCSNRVKVRACKQDSDCLAGCVCGPNGFCG (designed binder) [LRP6_CKP19]
Best Fit IC50 (nM) for Wnt1 (5 ng/well), luciferase reporter, fraction F1 (LRP6 [1]): 23100 nM
Best Fit IC50 (nM) for Wnt1 (5 ng/well), luciferase reporter, fraction F2 (LRP6 [1]): 49300 nM
Best Fit IC50 (nM) for Wnt3a (25 ng/well), luciferase reporter, fraction F1 (LRP6 [2]): 59300 nM
Best Fit IC50 (nM) for Wnt3a (25 ng/well), luciferase reporter, fraction F2 (LRP6 [2]): 69800 nM
ELISA (LRP6 E1E2 protein): 3.27
S/N vs BSA (LRP6 E1E2 protein): 42

GCNIMLPFWGCKQDFDCLAGCICQYYQSCGFH (designed binder) [9.54-28]
IC50 (read off the curve) (hVEGF-A (8-109) [6]): ~0.1 nM
fold improvement in binding affinity compared to 9.54 (hVEGF-A (8-109) [5]): ~10 fold

GCNIMLPFWGCGRDFECFYECICQYYQSCG (designed binder) [VEGF_CKP9.54.90.62]
IC50 (read off the curve) (hVEGF-A [3]): 20 nM
Cellular IC50 (hVEGF-A [4]): 0.92 nM
FOLD [..] [..] TO VARIANT 9.54.90 (hVEGF-A [4]): 1.47 fold

GCNIMLPFWGCGRDFECMNQCICQYYQSCG (designed binder) [VEGF_CKP9.54.90.13]
IC50 (read off the curve) (hVEGF-A [3]): 20 nM
Cellular IC50 (hVEGF-A [4]): 0.96 nM
FOLD [..] [..] TO VARIANT 9.54.90 (hVEGF-A [4]): 1.41 fold
